Results: the supplement of paper PMC12042874
± gives the uncertainty stated by the source.

Assay: amyloid nucleation score (Sup35N fusion, yeast selection) (log enrichment); library NNK2; higher = more nucleation; inactive = no reads after selection
Outline: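 Output and input plasmid inserts were sequenced by Illumina after psi-negative yeast carrying Sup35N fused to peptides of 20 random codons had been induced 24 hours with 100 μM copper sulfate and grown 7 days at 30°C on medium lacking adenine and uracil. The nucleation score is the DiMSum log enrichment of output over input reads, centred on the mode score of non-aggregating sequences. Sequences with under 100 input reads were excluded.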

In the case of DDIKIWFRATVHVVF, the amyloid nucleation score is reported as “inactive”.
In the case of DESIEYSDSGGSCSFPVSK, the amyloid nucleation score is reported as “inactive”.
In the case of DFSLSGCPGMNRGDYDLHSK, the amyloid nucleation score is reported as “inactive”.
With DFYNRASLSYTSDVASGSPC the amyloid nucleation score was “inactive”.
In the case of DGALNTFIDYGLSTAIKKIN, the amyloid nucleation score is reported as “inactive”.
In the case of DIFIGNSVCGVYRMVNMYSY, the amyloid nucleation score is reported as “inactive”.
For DKFMLVSCVYSDNLLVIYSG, the amyloid nucleation score was “inactive”.
For DLFLRYY, the amyloid nucleation score was “inactive”.
In the case of DLQIFTLLFTR, the amyloid nucleation score is reported as “inactive”.
For DNSIRTLEILKSGNIVRGPR, the amyloid nucleation score was “inactive”.
For DQFRHLVTGSNNTIIKYSGV, the amyloid nucleation score was “inactive”.
With DRLLDLIVWGVFWQLGMRFL the amyloid nucleation score was “inactive”.
For DSFSSWYDFQFVWSVTVNRM, the amyloid nucleation score was “inactive”.
With DTIILC the amyloid nucleation score was “inactive”.
With DTMKFFSSLSMNGENVGLGY the amyloid nucleation score was “inactive”.
In the case of DVLVSILITPRCHHA, the amyloid nucleation score is reported as “inactive”.

Point of comparison: DGVSMFWMPHAKRALLYGSY, amyloid nucleation score 0.063 ± 1.1. Against it:
- DDTLVVLPTRYLTPIWEMH — higher, 2.4 ± 0.18
- DECCMWMVLPEGSPAQRPLG — within error, 1.04 ± 0.34
- DEIIQRWIFNFIWDRLFYLR — within error, 0.94 ± 0.14
- DELDVFG — within error, -0.893 ± 0.44
- DETYHKYDRFWLGVMSFGFY — within error, -0.787 ± 0.34
- DEWQRGRTLSDTF — within error, -0.295 ± 0.76
- DFCGRG — within error, -0.152 ± 0.76
- DFCWAFRAASLSRGVRLAAV — higher, 3.23 ± 0.11
- DFDGRRHSDNDLSWNSNF — within error, -1.42 ± 1.1
- DFNSDFAGLLLDTNKYYIHD — within error, -0.088 ± 1.1
- DFRCADCLKINFSIVQSK — higher, 7.257 ± 0.05
- DFRKNANRLLRIYGVMRECA — within error, -0.016 ± 0.19
- DFSWNGGNFTFVFSKCGL — higher, 2 ± 0.22
- DFVDGVPL — within error, 0.415 ± 0.8
- DGGMR — within error, 0.322 ± 0.5
- DGGVYTNINIFGCLVGFGGW — higher, 8.006 ± 0.026
- DGVFRCKKRSSNFSDKSVCM — within error, 0.641 ± 0.74
- DIHQFGCTHIGCVIGYCCRV — higher, 8.504 ± 0.031
- DISCCLYRDTPVWERKDYVA — within error, -0.506 ± 1
- DIVANDKMMIIRVIMGTWCH — within error, 0.927 ± 0.45
- DKWAFVRITRQEPPASIRMD — within error, -0.939 ± 0.76
- DLITLMKSAIPQPNMRLNSL — within error, 0.105 ± 0.57
- DLKVWAWKLILFGIMDLGGH — higher, 3.89 ± 0.048
- DLQSRDYPMADIVHIGIQRH — within error, -0.754 ± 0.34
- DLRHASVVVNRWILCLLGHI — within error, 0.106 ± 1
- DLTGGVRLRRWGWTSCSGNG — within error, 0.404 ± 0.46
- DLVVELGESQQPWPLVRSRP — within error, 0.6 ± 0.64
- DLWGVI — higher, 8.81 ± 0.026
- DMERLAGYLQVRSKGMMRHT — within error, 0.155 ± 0.42
- DMSNQFYELVAMILMNST — within error, -0.823 ± 0.32
- DNDYIYRYPWP — within error, -0.288 ± 1.1
- DNKYGFMIVIYTYSAGDAEE — higher, 2.62 ± 0.061
- DPGSRDMIG — within error, 0.043 ± 1
- DPKHATYAKQRSGMYRYGHW — within error, 0.691 ± 0.43
- DPKVVMLVMTDMLNFG — higher, 5.71 ± 0.06
- DQLWRIRYWLLTDVGRNRIF — within error, 0.343 ± 0.38
- DRCMFNYVIEVHVYSCVRFW — higher, 4.67 ± 0.079
- DRFQMGCLWGNNEYLLSAMA — lower, -1.97 ± 0.75
- DRHRFIHFYAQGERKLSRTM — within error, -0.358 ± 0.79
- DRIGIRYWG — higher, 1.34 ± 0.14
- DRLMLALGKGHGFEIGGPVL — within error, 1.37 ± 0.39
- DRNPSGNSERPHVMPHPSVD — within error, -0.146 ± 0.32
- DRRPNCIFLDGSYRRDV — within error, 0.034 ± 1.1
- DRSAIMVRCNQIFHISPIGF — higher, 6.31 ± 0.064
- DRVLRVDSLSAVAVNNLVVR — within error, -0.178 ± 1.1
- DRVLTPNKGGKPRTLPHRDS — within error, 1.19 ± 0.37
- DRVSVVIAGDQKPEFRRGKR — within error, -0.469 ± 0.45
- DSASVRVVIADEDLSAVVRA — higher, 1.72 ± 0.27
- DSCRGMVSFCG — within error, -0.399 ± 0.35
- DSLLKVLRRIWCLYVGGNLI — within error, -0.758 ± 0.37
- DSLTQILTVSCVCYEESMRI — within error, -0.613 ± 0.48
- DSLYWSRCSSFRTKQEVSDM — within error, 0.907 ± 0.3
- DSQKLAGVVSIKVSVANVLS — higher, 3.9 ± 0.11
- DSSYG — within error, 0.285 ± 0.74
- DSVIGSLCPNCYGWRISKVM — within error, 0.081 ± 1.1
- DSVIRRNKNTSTL — within error, -0.275 ± 0.25
- DSVVLGGYGGFAAHKTRVIF — within error, 0.213 ± 0.43
- DSWLFGDINRCFWLVKCYHR — higher, 2.69 ± 0.075
- DTAHTNISECRAMVRMYRSR — within error, -0.755 ± 1.1
- DTLLSMAKRCLDSVFLGFPR — within error, -0.134 ± 0.55
- DTLVHMLRYFGGTQPWYM — within error, -0.183 ± 0.53
- DTSIW — within error, 0.114 ± 0.29
- DTWVLDIMYFSLRYWVFVSV — within error, 0.228 ± 1
- DVAYRVVDKRIQRVAKCMYM — within error, -0.194 ± 0.6
- DVFVDMGMLTPKRCRARRGV — within error, 0.883 ± 0.34
- DVIVRLFVPYLVV — within error, -0.199 ± 0.44
- DVKSAWRLGVGCLTVRAIRE — within error, 0.233 ± 0.49
- DVQHFIWCCNATVTYPLLVL — within error, 1.27 ± 0.22
